Data taken from article doi:10.1101/2020.05.05.078014.

Target: T1, Rhed (RNA-binding heme domain of DGCR8), heme-bound (Homo sapiens, UniProt Q8WYQ5 285-478)
T1 sequence: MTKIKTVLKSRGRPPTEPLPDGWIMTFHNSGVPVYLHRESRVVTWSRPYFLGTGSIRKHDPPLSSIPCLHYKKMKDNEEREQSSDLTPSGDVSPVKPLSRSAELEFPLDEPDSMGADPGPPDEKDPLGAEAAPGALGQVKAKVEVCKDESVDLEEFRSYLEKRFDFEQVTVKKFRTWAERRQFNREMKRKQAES
Assay: EMSA

GGAGACUGAUUGUCAUAUGUCGUUUGUGGGAUCCGUCUCC (structured_RNA) [pri-miR-340 apical stem-loop fragment]
Kd: 3.5 µM
